Assay: label from the status in PepcDB records
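Further: failed if final PepcDB status was selected cloned or expressed and not failed if soluble or beyond.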

MSKGYGVFGHVPDNADDDDLLPYEDDDSGVSWGHALRRRNPWKRGGDEGADYDDDRYGADDTDDTDDTNEDRSLFAGKSSGIGGISGEADGMLGGAGAAGSRAVTFGGTDSLSAADAVMPYRFRQGRSVWFEDEDEGHFAGAAKRAEAHAVPILALRNDVESSSSNAVLARARSIARKAATMVINPVYSENHRTGYAELDGILRGTTSPSSKYRTSVQFDLDTGEAVGGKCSCPAYGRGYGMCKHMIALAFIFCDDPQRFEGYRAGAVRPSRTLIDYMEHVDRQDAQAKARRRNALMRRFDTAKGRNGAGGRHTNSGYGSRAGTRGGGYQGDSETVGLGQVQLVPILSFIDGVWSVEFKIGSTSNGSSYVLKSIPQFVLTMANGDYTDYGQKLAFTHTPDMFDDDSRPLLGFLDDAMAVRRAAEQQDRYYGHIAIDRHLTLSAPEVARLLSVREGRGVQLVLNTWFSGQPASVPVDGGEPDFLMRIARRDFNTYGPDAGYLLTGVPAVETVIDGGKNVWLLLASANPAGVVSAMMAGSQRKSAAGCRFVRCPKRLIPLRGLLGDMFEPDGEGQVIAGDDIALFARTLLPQLVGAGLLEASEIPRELAELSPTECSLQFYLDRDEHGVQCEVKARYGDAIVPLLPDGPTVHARDERSIPLSRGVIGRDFDAEHLAIDVVREFFTMPDQRKRVAAATHQTVNGFRTPAARKTAKQFVPDAATIDRDDTTQIVRLFDEGLPALKEVGEVFTTPAFDRLIAPKPPSVKVGLSIKGNLVEISPLADEVPPDEVGALLSSYRRRQRFHQLKDGTLVKLSGANLSTLDRLASDLDLSEQQLNSGLIELPGGRAFLLDGELPDDGSDVVKDASFTEYIDDLKIIDPKSYEVPDSLKHILRPYQVEGFQWLNTLCDKGFGGILADEMGLGKSVQLIALLLSRYHNESSGMPTAQGMDAGNAGNSESAVTGHITFDSEDGGSHPSLIVCPASLVYNWGAEFAKFAPSFNAVVVAGTKAERRTAIGRAFRADEPTVLITSYDLLRRDVDDYTANEQRFNVMALDEAQYIKNHTTKIAKAVKAVAADHRFALTGTPIENRLSELWSIFDFLMPGLLGSYKRFHERYELPISNARAADGSTAEGRAAAQVNPEAARVSRQLQSLVGVFIKRRLKSQVLTDLPDKLETTLTVQLAGEQRKLYAAHEQRLRMQLEHSEEADFNTSKIRILAELTKLRQICCDPRLLYADAKDQSAKLAAITELVETCVNEGKKALIFSQFTSFLDLIAERFDAQGLRYYTITGSTPKKKRLELVDQFNADDTPAFLISLKAGNTGLNLTGASVVIHADPWWNAAAQDQATDRAHRIGQTEDVNVYQVVAKDTIEERILELQHTKSELARQFTDASLLADEAGTGASALTEAPASIATLTKDDLLNLLG
protein production: failed

MVEEKVVEKGKERAVEVTKWRRVFDDYRAMSDEILRPDEPKKEKFLEAMRKYLTKQNWPFLLPYKLTLEACTKCGTCAEACTMYLGSGRKKIYSPVYRSDMLRKIYKKHFTLTGKLFGPLIGAKDPTEDDINALAESAYRCTVCRRCALACPFGLDNGLITRETRKIFADLGIVPDELKDNGVENQLKYGNAPKIPYEAFMDILEFIKEDIEDEKGVEVEIPVDKKGAKYLIMNNAGDYLAFTETVQGIVEIMNYVGEDWTLNSPKTGVNDIVNYGLFYSDEDLVRVMKAHVETAKKLDVEYLVVGECGHAYDSIAHFAKDLIPPEERPFKVISWMELLDQFIREGKLKLDKEKNPEPVTFHDSCKWGRTGGIYEEPRRILQAACKDFREMYPNREWNYCCGGGGGFAIMAKDDFLKFRMETYGKMKVQQLKQTGAKIIATICSNCKAQFREMINYYNLDMRFSGVSELVANALVYE
protein production: failed

MNANYVSKKPYIVTIACTKGGSAKSTNAANIGAFCADHGLRTLLIDTDTQPTLSSYYSLAKTAPGGIYEFLLQRDVEPSHIVSQTSIKNLDLIQSNDPSNNVSHMLRNAPDGSIRFSHLIKSINNYDVIVIDTRGTRDITVDMSVLAADILFCPILPQILSAKEFIRGTIGMYQDLQTFESFGFKLPPLKAIANGVDNTNDVKFVMQKLHTLFANTFDESKTLLDFSIPYHVAYREAVTYALPVYRHSAVEYPVMQQLCCLLLPQFKENFEKPMQRGLEHHHHHH
protein production: not failed

MDNDRDTVEFWSSLFQSFADSEPKDNPYPVVRSPIMTMSTPMAIDEPVEPWKVLEYGGKEVRPMAIDEPAEPWKALEYGGKDVRPMAIDVPAEPWKVGGKEAQPANAAAEAGYKNVNTDQEKSTQKATEKVIM
protein production: not failed

MTQTTPQPDPSRLRDELVRLHGKASPEWDSLVRLDPRFVDAYLKFAGVPQRRNHLDDKTRAFIALAADACATQLYAPGVARHIERALSFGATREELIEVLELVSTIGIHTSNVGVPVLLEVLEEEGLRKGAPPLDERRQKLKAEFETNRGYWHPTWEGLLELDPDLFEAYVEFSSVPWRTGVLSPKIKEFMYCAFDASATHLYVPGLKLHIRNALRYGATAEELMELLEIVSVTGIHGAELGAPLLEAALKRSGAAAGEPHA
protein production: not failed

MDLIEPAVRVFLGVFFLMIGLQFAARTLGLYSRLGFSHINYGKTGTATWWHRHTFNLFRAAILLMCLARIWVDLDAWLGVFPLLYHWPVLLAGAVLLLVSYTSVNYLQAYMHEDWRSGIDDHHGSGHLLTDGPFGRSRNPLFLAVMTGQLGFFLALPSVFSLVCLVTGVLVIMRQAREEEKALAKRFGEQYEAYCKRVPRWF
protein production: failed

ITERHLIEESLKESQQRWEFALEGSGDGIWDWGVMEDRLFLSARLQEMFGYARGEMGESMEQASSFILKEDRARVLSTLYRFLKEGEGQYADEFRVNCKEGGYRWIFSRGMVVKRNAQGEAARMIGIFTDI
protein production: failed

MSHLYDPTTQYYTGEYPKQKQPAPGVQAKMTPVPDCGEKSYVGSGRLKDRKALVTGGDSGIGRAAAIAYAREGADVAINYLPAEEEDAQQVKALIEECGRKAVLLPGDLSDESFARSLVHKAREALGGLDILALVAGKQTAIPEIKDLTSEQFQQTFAVNVFALFWITQEAIPLLPKGASIITTSSIQAYQPSPHLLDYAATKAAILNYSRGLAKQVAEKGIRVNIVAPGPIWTALQISGGQTQDKIPQFGQQTPMKRAGQPAELAPVYVYLASQESSYVTAEVHGVCGGEHLG
protein production: not failed

MPIIGTKELITCDNTDFIHSGNDADRSGFILSVPVFGQDGSLRGSVSAIMLTSALRKLLPGSDYVIVNSGYGFESDQHKMSTALAADSRAFTAADPNLIYSEVIPLSLNDPRSAWRLWAGFPNSRFDNNMDVQSVRQFELAGYAAVAVVTLLALACWYAIGRTMTMQVEAAETLERRVEQRTAQIQHLATHDILTGLPNRGLLADTMDEALRSLRDDEKLAVHCVDLDRFKPVNDTLGHPIGDQLLGAVAKRLKHHAGETAMVARIGGDEFVILQLLLDGNDEAGVLASRVIHALSDEFSIQGHKINIGGSIGIAVFPDDGQNSETLIRNADLALYKAKMEGRGTCRSFEPGMDARLQERRQLESELALGVKKEQFVLHYQPLHDAKTSQLTGFEALVRWNHPRLGLLAPSEFIQLAEETGAIDALGEWIMRRACADAAKWPQPVKVAVNLSPAQFKQQGLSLQVAAALAASGLLPSRLELEITESVLLANNENTLNTLYSLRDLGISIAMDDFGTGYSSLSYLRSFPFNRIKIDRSFVSLMCESSESRAIVKAVAELGTTLGMTTTAEGVETEDQYRLVKENGCTDVQGWYFGRPMPASELHTLFEQPEALTA
protein production: failed

MNKNLSEKMKIAFDIKLKNFGNKIEFAYPNQTLALSTTSNQCSLKCAHCNGHYLNNMVPIEEYEEKVQSRNITSFLLSGGCSYEGDVPINTHINTIKNLKEQGYRLNAHLGLMDKDSIVELCKYLDIVSFDLVFDDETIREVYKMKKSKEDYIEVYNTIQEHTEVAPHICIGLKGGQIKGEYEIIEYLQKNPPNKLTFIVLIPTKGTEYENVEPPELEGVADILCEARINLPDTEINLGCMRPRGVYRKELDQLSIMCGVNRIVLPSRSAKNKAIEMNMTINECKECCVL
protein production: failed

MQYIKQIMLLVILTISWKCQAEEVKEIWLDELGESSYYIQDWGLPRINKAVTMTPLTVKGIVYERGIGTHAISRMLFDIGKKAKTLSGLAGADDNTPFACNLQFKILGDRKELWRSGIMRKGDPAKPFNIDLSGIDKVLLLVEECGDGMMYDRADWLNVKFTTLGDVQPIPVWPKPIAKEKYILTPQSPDAPQINNPLTYGARPGNPFLMPIMVSGKRPMTYKAKGLPKGLKLNRKTGLITGSTNTNGNFKVRLQATNEKGTDEKEITLKIGSEIMLTPPMGWNSWNCWRFAADDQKVRDAARIMHEKLQAYGWTYVNIDDGWEADERTPEGELPANEKFPDFKTLTDYIHSLGLKFGIYSSPGWTTCGRHIGSCQHELTDAKTWEKWGVDYLKYDYCGYAAIEKNSEEKTIQEPFIVMRNALDQIKRDIVYCVGYGAPNVWNWGAEAGGNLWRTTRDINDQWNIVMAIGCFQDVCAYVSAPGKYNDPDMLVVGKLGPGWGAKSHDSDLTADEQYAHISLWSILSAPLLLGCDMTAIDDFTLGLLTNPEVIAVNQDPLVAPATKLTVPNGQIWYKKLYDGSYALGFFQMDPYFILWDQDKAVNIQQQKYNFNFALNQLGIQGKVKIRDLWRQKNLGIFSGSYETSIPYHGVSLIKITPIK
protein production: failed

MHEDRKRRRGKLRTAVHFKAPRRARFSRFPLFPRLNPMPAAPTDAHAALPIALRDLIRLHAPQATLLAAIGQRILNIQAEGAPTEEAQLVPPDDWLEHGDLAWITRDGALLGLLWSDGAPVPDGAVQVLTLLLSAASAEGASREADMLITQLPAATAWLSAELEFRQVSRTFLELFGLTGADVLGRTVHEVFPDHAALAQQLDSAAAGRAVQLGDERVPSLPGHSGERWLRGSARPYFGGAAAGVLWTVQDVSTEHTQTTQFAALLGTDLPLALLGPGGAVQGASRGMRQLLGEPEDLAEAQAHPQRPLHEWPCWAPAGARLLQDLIQSAEAGRPSPVPSEIALARGGQLPLLVRRSDTVPGLLLAEGVRPAAVSEDNGAARLLHLSGAATILLDPQGRVQLISEPAARLLGFDPHNIALTGLPLPRLHQQLGIKLHTPQGNPLTVPPLSALTLPHNGEVLAVLPGGVTRHLEISLSALPGSGQSTGSSAASPGRSAAPELLLSLRDVTTLRRAQAKLRHDASHDGLTGLLNRSGLRAALGQATAAQTGGMVACLDIDGFGGLNAALSRTAGDLLLIQVAARLNDLAELEGGQAARLADDTFAVYLPQLGAAVGGQKLQAALREPLRTGKRLVPVTFSLGAAPLLAAAPEQALADAEVALQHARRQGRGQLTVFEPDMRAEEAQTFELEDQLRAVLDRGLQHEQFSLLYQPAVSLKDGRVLGAEALLRWTHPELGNVSPARFLPLAQRSDLITSIGEWVVREAVQGRTQLRDATGQRNWRTSVNLSLEELRREGAIERLLPLITRPSALDIEVSASSLLDHSEETLGLLDALRARGARLIVDDFGDGASSLTALTQFPLYGVKLHPTLTTRLPGDQKSLKLVQGTVSLAHSLGLTVTAVGVETYAQLDMLRDLGCDAAQGYALTPPLSAGDLVTWVQGR
protein production: failed

MSEMLYILQTVLLPIFIMIFLGYILQKKFTLDLNTLAKLNIYVFVPGFIFVKFYKTHFALSLLFYIIIFFVIYMFVLFLIGKLLSMFRKTDKGETTTLTNSLMFFNSGNYGVPVNDLVFKGDPLAMSVQVIVLSLQNIFTFSYGVFAIQSLHIGKLKALLGYFKMPVLYALLLAIILNYNHIPIPEFIWTPANYVADAMIAIALLMLGAQISNIKFSLKWSKSYAYVFIRLIIGPLIALVIIKIMGIEGIIAQTLFIASAMPTSVNSSVIAQEYDNHPELAAELVFLSTLLSAITVVIVIYMSKILF
protein production: failed

MSVQLKCDAVNCVYNRSHLCSAEEIEVQGGETTGGDATFCGTFSSKSLGNFVSSLGNMNYSGSLKQAVSAEPIMDPKVHCNAVNCTYNDQRYCHADQVEIRNEVSHTAEETECQTFYPKMSLEHHHHHH
protein production: failed

MLIRAIPFVFVILWASGFVGARFGLQYAEPATLLSIRMAFNVLLFLVLVAVLRRRLPTGTDFWHSCVVGALIHGFYLGGTYFAIALGMPAGLSSLLVGIQPILTAALLVAFVREEFKPSQWLGLALGFVGIAMVLMGKMEWQSEQHKVLAIGLCLLALVGITLGTLYQKKHCQQVDMVGGATVQYLAALIMFLPVAMQFETMQVQWELEFILTVLWLVVVLSCVAILLLLYMVRNGASSSVASVFYLVPPTTAIQAWLAFGESFDWMGISGFVLAATAVYLVVKKPDLTIKKAIKTEYT
protein production: failed

From a protein production outcome set (Wang et al. 2014)
